Assay [1] addresses human IgE from serum of a representative allergic subject with high IgE reactivity to house dust mite allergens (human). The assay is described as follows: competitive inhibition ELISA, human serum IgE, GST-Blo t5 on plate.
Assay [2] has the same target. The assay is described as follows: competitive inhibition ELISA, human serum IgE, GST-Blo t5 on plate, inhibitor at 10 µg/ml.

B1: Blo t 5-Fve (two-in-one chimeric wild type) fusion protein (protein)
chain: QEHKPKKDDFRNEFDHLLIEQANHAIEKGEHQLLYLQHQLDELNENKSKELQEKIIRELDVVCAMIEGAQGALERELKRTDLNILERFNYEEAQTLSKILLKDLKETEQKVKDIQTQSATSLTFQLAYLVKKIDFDYTPNWGRGTPSSYIDNLTFPKVLTDKKYSYRVVVNGSDLGVESNFAVTPSGGQTINFLQYNKGYGVADTKTIQVFVVIPDTGNSEEYIIAEWKKT
In assay [1], B1 showed a maximum inhibition of IgE binding to GST-Blo t5 of 70%.

B2: Blo t 5 (recombinant major house dust mite allergen from Blomia tropicalis) (protein)
chain: QEHKPKKDDFRNEFDHLLIEQANHAIEKGEHQLLYLQHQLDELNENKSKELQEKIIRELDVVCAMIEGAQGALERELKRTDLNILERFNYEEAQTLSKILLKDLKETEQKVKDIQTQ
The molecule B2 returned an inhibition of IgE binding to GST-Bt5 in assay [2] of 100%.

(Values after patent publication US20060275312A1.)
